Laboratory results as given in a protein production outcome set (Wang et al. 2014).

Assay: label from the status in PepcDB records
For “MKWLRSEMKTFAIHLPQFHTFPENDRWWGKGFTEWTNVKKAKPLYEGHSQPLIPINSHYYDLSNPEEMTRQHRLAAQYGIDGFVYYHYWFNGKKLMEKPVEDLLTNKEAKQQYCLCWANEPWTRAWDGKNKEILMPQTFGGQEDWLNHIRYLISFFKDERYLRIQGRPVFFVYSPKNIPNFDNMIEFWDSYLERCGEEKIYLIEYISSFNPKAFSDYSKAVFEFEPLYSAHYEISFLKQADRFIDKKMKRLDCLDYDYLWNRILNKQRKYGTRQIVRSAFTNFDNSPRKGTRAFITQGSSYTKFADYLNQLIHSNRQDYMDFTVINAWNEWGEGAILEPTESDQYGWLQAVKDAVQ”, the protein production was “failed”.
In the case of “MKWRSRQLSFSSAKWYGDVIWIFDPGIIGAQIDNEGDLKKCFIQTLFHSTGSRQSIRIWWREIMLSLILRIYLDKFLPWISLSIKEVGESSVINFSLWGCLHGTRFRRWYSPFQKLSALAITKKDVISSSWRCFNGMRCN”, the protein production is reported as “failed”.
For “MKWRYSPKTSNYCFIVGGFFLFLPILMYGWGHFRRPPRSENQQELFRGIVYQRLIESKPRPLIIHIVTIDLNTPGIKPFITPDIENLSKNVGVGKQAIIDNETKARTTSEFVAEFQVKLAINGSYFYPFKEVTPWHYYPHSGDTTKVLGQTISNGKIYANKKSSWYVLCFDNNNQAQIPGGEECPKNTIQGLAGDDVLVFQGKPKINIYANSSADKPYSRVVAAIDKTGKKLWLVLVDGKQPLYSEGFTKRELTQFIAKLGVYNAINLDGGGSTTLVVANPDKEGKPKILNAPTHTKILMRDRPVANHLGFYAD”, the protein production was “failed”.
With “MKYADISHFSHPQHNLKFDYTEKPFKCDGCNEVGIGSRYRCSGDNHGSCDFDLHAHCALPSASITHPFYKKCTFQFVARPPGNERRYCNACEKDVSGFLYHCKACGFDLHPCCAMLPMVLDDGETNLFLYRKVSSSCHRCGKKGRSWSYRSLFLILFLFFHYYDTKD” the protein production was “failed”.
For “MKYIRKSISIFAVLALVFILSFGNVSAGTIYESKTKETVTSGVTLETITRFTDDGWQKINVLRVDLENPNVKVDTLIDSESIKKLTNVKNLAQSAGAVAAVNAGFFNWLKGESGKGYPDGPVIKSGEFLSVDSEYNRYNNSMATIAIDKDNNVYFDFWKTDITLHAPDGSTTRVFQYNKPSPFQYTDITIWTSAWDKYSLGVSQQYPDLVEVVVDNGTVVEIRQGLPAVEIPQNGYVIISRGANAQFLLQHFKVGDPVEISFSTVLDWQKIEMAVTGSAILVKDGQIPEKFSYEISGVHPRTAAGTSKSGKELILVTVDGRQAASKGMTQRELANLMLSLGAYNAINLDGGGSTSMVSRIPGTNDLKVVNTPSDGALRSISTAIGVFSVAPPSELAGMIIETQPNVFVNSSTTLTVKGYDKYFNPVSVDPNSINWSVSGIKGSFAGNVFRAESSGIGTITATVNGIKASTTIRALEAPNKLILSTTKLNLLKGSSYSFTVKGVDNNGYSSYINFADINWTVNGDIATIEKNKITAVKPGTGYIEAAFGDARAYCAVSVASESTYLVDDFEKKNGSFETVPANLPGSYELSSEVKKSGNYSGKLSYDFSYLEGTRAAYLVFPNGGIDLDGNTVEITMMVNNPQQNPNWLRAEVIDSGGQKHLVDFTRDLTWTGWGRVFASLRDIKSPAKLTKIYVVQVNPVPSSGCIYIDDLSLVKATFPEINESTIPKDVVLSDRDNKEAALNKDSIKISVFSGKSNPENMLQKLLNTKFYNKVKADGYMKSIQDISNINTNTHVDIGGTRLITLNTTDKSIRTSASGQWQWFFDKLNSHTGDNIFIFMKNSPDTFVDPLEAKLFKDILIEHKEKTGKNIWVFYGNSSETYYADNGIKYFGVAGLNIGGLTPDNAKNVKYIEITVNGKEVSYQYKSPLK”, the protein production was “failed”.
In the case of “MKYLAAYLLLVQGGNAAPSAADIKAVVESVGAEVDEARINELLSSLEGKGSLEEIIAEGQKKFATVPTGGASSAAAGAAGAAAGGDAAEEEKEEEAKEESDDDMGFGLFD”, the protein production is reported as “failed”.
In the case of “MKYLAFSIVFILTAFTRVTAQNLDGIDKSLSLSKMKTRARIAEETGDIYTALFYYEEVVRNDSSDLKALYQVAEMQRFTRNYKAAEVTYGKIHEIAAADYPLAQYYQGLMQKMTGRYEDAKQTFSEFRKNSAALADKTFKATLARDISGCDSGITYRDFPQNTQIKNAGKSVNFPHTEFSPVILDSTTLAFGSLRIDSVIYYDTRGEHYEKQPVRQLYEAKKVKGQWVEKGLLEAINDPAMDMGNFVYSPTTDRYYFTKCTKNHHGKVSCAIYYSERVSGKWSHPSKLPDPINIEGYTATQPTIVIDTTSSSAATTTPKNMPPRKTGGNKPVPKPVVNTIEYLYFVSDRPKGKGGLDIWYTSYNASKKTWNEPTNLAVANTPETECTPFYHVPTQTLYFSSNGLVNAGGLDIYKLEKDGRRFGRPENLSFPVNSPQDELSFVLADNAKTGFFVSNRPGGTPFFHETCCDDIFSFEVIPPPPFVCTLDLSVLDVAAKNNCDGELLNINQVNLKTKAAEKDTVRLSSCKYTVSLAQHVKYTFFINKPGYVTDTLSFETRDMCATPTITKSLTLVPVSVSMKNSEPVIETPVEGKAFVLKDIQYETNQTDLNDEAKAAIDNILIPFLKEHPTDKIIISSHTDDVGSHKYNENLSDQRALKVMQYLIQKGISAKQIQAKGYGETKPIASNINPDGSENEIGRSINRRTEFLISK”, the protein production is reported as “failed”.
For “MKYLYQQLLAFIGVIALIILIVGTSFTQLTKRTMQENNYEQLYGYAESALETRDFFINVAGVSDRDVLSYSFQLTERVLQKQDVQFVFINKDREVQYPPVDSTKKLDFSLIDKNWDQIMKGNRVYATENIDIYGARNTSSYVMLPVYASNQSSDKKVIIGSLVITQPAKNVDRSVQSVTQNLIKGFIFSGVIALLLSYLFATFQVKRINRMRKATKEITSGNFDIQLPVHDKDEFDDLAEDFNKMAASLKESQEEINRQEERRRQFMADASHEMRTPLTTINGLLEGLQYNAIPENQKENAIKLMQNETARLIRLVNENLDYEKIRTNQIQIVVKKFNGTEALENIVTQLTAKAEAAGNQLYLDTTEPIDVYADYDRFVQVVVNIVQNAIQFTENGEIHIALEKGYLETIVRISDTGIGMTEEQILNIWDRYYKVDPSRKNTKYGESGLGLPIVQQLVRLHKGKINVESELGKGTTFIISFPDVEITEN”, the protein production was “not failed”.
With “MKYSTRADIQDYLKQGYQLVSDNFVTGTTFDTDDRTDQIYEVHFKHGIESDFEKRNVKETVHYRYDNGQLARPIYQNVLNFERKVETDQVTKQRNYKNWQAVDGTSFKRVVSPYIKGYTAVPKLIDEITNINENHKNIEKIVVYKANDEKAQVKYFDDTTGRKLSEQFLHGAYGSRDVYRTANTIQHYKQMGYELVSDDYPKNGAKYSQDKLVRVYEIHLKHKIIEQSEKSTVKEVIHYLYDNGHLAKPVYESVLNFSRMVGIDQVTGKKYYGIWQATEGTSFKKVVSPKIEGYTALPKVVVAINNINVNHANIEKIVVYKANDEKARVKYFDDTIGRKLSEQLLHGVYGSRDVYRTANTIQRYKQMGYELVSDNYPKNGANYSQDKLVRVYEIHLKHKIVKQPEKSTVKEVIHYLYDNGQPAGPIYENELDFKRIIEFDQVTKQKRYGNWQAIDGTYFKKVDSPKIIGYTPTLEAIETINNIDGSHKDIEETVVYKINDEKAQVTYYDDTTRKKLSEKGLNGAYRTRDSYRTVDAINQYKWAGYELVSDDYPQNGVFYDQDKLIKMYEVHLKHGEKMDFEQRAVKEVIYYQYDDGQLAEPTYKNKLSFRRIVKIDQVTGQKYYGVWQAVDGTNFRSVVSPIIEGYTPIPEIVRAINNINSYHQDVEKTVVYQANKQNEVVGGNSPKKFKQIKIILVRVIHPNREVRINTEKSHTKK” the protein production was “failed”.
In the case of “MKYVPSFKSLKETENGWELQVSWMITVTLRVTMQKSRDEITYLIKKTEGLVKINSYLRFIILPTRDRTVVRLTFFYKGPFERVAKRQTEEFYRRGVEIFKRDLESVQVERKEERGAPSNAKLLLNMRTLLSTQIGKDQLDEVLEQAMLWSVNSQVFVLISDGSRRVELRFRNGDLESGGDLSSLGDKITVIVKGDRAD”, the protein production is reported as “failed”.
In the case of “MLADELTIGPIRAVPMDITPKYVGIASGLMNAGSAVADIISPIAFGIIIDKTGNWSLPFYGSVALLVIGIFLTFFMRPDKSL”, the protein production is reported as “failed”.
For “MLADHARALDALRSALTPLKAELVAAELESIPVSRLKDVTEGRLRLGAVEAAGFTSVRGVYEAGRYELRQLPGVGEQTADRALAAARQIARAVAETVSVRLDVDHPEPRTTALVVALHRLVEAGPELRRALDAATRLDERLGALLPAARPAGGRLRLALAGRHRREDALAAAAETRDLVAEATARDVPLLLAQASTDLLRDPASDIEAWVDFELRSAEYYSQLAEVSEHRPDAEAGEGFLPSGVAERVHAQPLDDTHRRVSLRGYQSFGARFALAQRRVVLGDEMGLGKTVQAIAALAHLAAEGHSHFLVVCPASVLINWTREIRARSTLRALPVHGADRRDAYEEWRERGGVAVTTFDVLHSLPVPDTEKPGMLVVDEAHYVKNPDTRRAKAVTGWTAHCDRVLFLTGTPMENRVEEFRALVRHLQPALLPAVQGGGVAAGPHAFRKSVAPAYLRRNQQDVLTELPALVQVDEWEELSAADRDAYRKAVAEGNFMAMRRAAYADAEKSAKLGRLRELVAEAADNGLKVVVFSYFREVLATVQQCLGEPVLGPISGGVPAARRQRLVDAFAAIDGHAVLLAQIEAGGTGLNLQAASVVILCEPQVKPTMEHQAVARAHRMGQIRTVQVHRLLATDSVDDRLLRILKNKDRLFDAYARRSDIAEATPDAVDVSDASLARRIVEEEQQRLAARPADQPARTTS”, the protein production was “failed”.
In the case of “MLADPAQPEHVFIVEDSRGATELKLYKSHYTIGKADSCDIRLHSIYASRQHATLVRFLTENGEVRYRLIDGDPETSRRSANGTYVNNRSITECDLKHYDQILFGADVKATYFYLSPQFRSLEHHHHHH”, the protein production is reported as “failed”.
With “MLAFFIFLSTLVLLFWRPWNLPIWVFSSLGAFFVFIFQLVDFKDACFVFSLVWDSSLTLVGLIILSFSLEALGFFDFIASKILYFSREKNQEKIYISTKKMMLFLLIFVFFLSAFFANDGAILIITPIIIALFSTLKDCKNHAFILSSFLLSLSFLCDASSNALVISNLTNIITANYFKIEFLEFAKNMFLPNFFVLLSTIVTVFVLYVRVLPKRLEFKLIKKEQISLKLFFLCIVFLFLFVISFFIGEIFNIKISFFALLWAGIFWLIILKIQGKKSIKILFEAPYGVLLFSFGLYMVVFALHKIGVSEILVKSYAFLMQDKSGIFGVALISAFGSSVFNNLPMVLIGDLALKEYFENFSFDSLMIYAHLLGVNIGPKLTPIGSLATLLWLGVLARKGINISFWQYCKFGFLITLPVLVFSLFALIV” the protein production was “failed”.
In the case of “MLAFNLLRSAHMLNPALQVLAKDGSIADNTYQPIAEDGVIPAGDVVMTTAQLDQLTAIQGKKALYITVNDSPETHQFPLDQLDAIFIEFAGFNDGRGYSFAALLRRQGYQGELRAVGDIFKDVLNYLKRSGFDTFVIKEGKDIQEAAAGLNDFRQPYQASTAVPQADYQTGA”, the protein production is reported as “failed”.
For “MLAGATLAIGVIAPQVLPATAHADEQTGESTVNLRILETSDIHVNLMNYDYYQTKTDNKVGLVQTATLVNKAREEAKNSVLFDDGDALQGTPLGDYVANKINDPKKPVDPSYTHPLYRLMNLMKYDVISLGNHEFNYGLDYLNKVISKTEFPVINSNVYKDDKDNNEENDQNYFKPYHVFEKEVEDESGQKQKVKIGVMGFVPPQVMNWDKANLEGKVKAKDIVETAKKMVPKMKAEGADVIVALAHSGVDKSGYNVGMENASYYLTEVPGVDAVLMGHSHTEVKDVFNGVPVVMPGVFGSNLGIIDMQLKKVNGKWEVQKEQSKPQLRPIADSKGNPLVQSDQHLVNEIKDDHQATIDYVNT”, the protein production was “failed”.
With “MLAGHLFAGVGEDVRLFKGITMTYGHNIELGDNAVVHDGVHLDDRGELVVGARASVSNGAHLYTHDHDVVDQTDVTNYRTEIGADARVTQGALVRAGVRVGENALVGSRSVVQGDVPAHHIAVGSPAESVRVKPGWLEHHHHHH” the protein production was “failed”.
